In one experiment the target is T1, cynomolgus monkey CD16a (cynomolgus monkey, UniProt Q8SPW2 17-208, limits assumed).
T1 construct: also called cynomolgus monkey FcγRIIIa
Description: SPR.

Experiment [1] has as its target T2, human EGFR (wild type) on cells (human, UniProt P00533 25-1210). Briefly: cell-based or functional assay.
For the next experiment, the target named is T3, human NKG2D on cells (human, UniProt P26718 1-216).
T3 sequence (looked up): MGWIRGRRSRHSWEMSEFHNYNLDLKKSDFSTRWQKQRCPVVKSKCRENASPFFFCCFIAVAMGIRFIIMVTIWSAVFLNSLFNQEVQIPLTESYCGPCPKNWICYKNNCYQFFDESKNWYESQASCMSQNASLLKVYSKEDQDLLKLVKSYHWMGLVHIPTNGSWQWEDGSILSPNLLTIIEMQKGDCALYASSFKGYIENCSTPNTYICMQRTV
Description: cell-based or functional assay.

Experiment [2] addresses T2, human EGFR (wild type) on cells. Description: flow cytometry, NCI-H1703 cells. (In general: Flow cytometry measures light scatter and fluorescence of single cells or particles in a stream.)
In experiment [3] the target is T4, human EGFR T790M, L858R on NCI-H1975 cells (human, UniProt P00533 25-1210).
T4 construct: whole, on cells; also called EGFRmut T790M, L858R
Description: flow cytometry, NCI-H1975 cells.

B1: EGFR-TriNKET (bispecific antibody, human IgG1, kappa)
chain: DIQMTQSPSSLSASVGDRVTITCQASQDISNYLNWYQQKPGKAPKLLIYDASNLETGVPSRFSGSGSGTDFTFTISSLQPEDIATYYCQHFRHLPLAFGCGTKVEIKGGGGSGGGGSGGGGSGGGGSQVQLQESGPGLVKPSETLSLTCTVSGGSVSSGDYYWTWIRQSPGKCLEWIGHIYYSGNTNYNPRLKSRLTISIDTSKTQFSLKLSSVTAADTAIYYCVRDRVTGAFDIWGQGTMVTVSSGSDKTHTCPPCPAPELLGGPSVFLFPPKPKDTLMISRTPEVTCVVVDVSHEDPEVKFNWYVDGVEVHNAKTKPREEQYNSTYRVVSVLTVLHQDWLNGKEYKCKVSNKALPAPIEKTISKAKGQPREPRVYTLPPCRDELTKNQVSLTCLVKGFYPSDIAVEWESNGQPENNYKTTPPVLVSDGSFTLYSKLTVDKSRWQQGNVFSCSVMHEALHNHYTQKSLSLSPG
heavy: EVQLVESGGGLVKPGGSLRLSCAASGFTFSSYSMNWVRQAPGKGLEWVSSISSSSSYIYYADSVKGRFTISRDNAKNSLYLQMNSLRAEDTAVYYCARGAPIGAAAGWFDPWGQGTLVTVSSASTKGPSVFPLAPSSKSTSGGTAALGCLVKDYFPEPVTVSWNSGALTSGVHTFPAVLQSSGLYSLSSVVTVPSSSLGTQTYICNVNHKPSNTKVDKKVEPKSCDKTHTCPPCPAPELLGGPSVFLFPPKPKDTLMISRTPEVTCVVVDVSHEDPEVKFNWYVDGVEVHNAKTKPREEQYNSTYRVVSVLTVLHQDWLNGKEYKCKVSNKALPAPIEKTISKAKGQPREPQVCTLPPSRDELTENQVSLTCLVKGFYPSDIAVEWESNGQPENNYKTTPPVLDSDGSFFLYSWLTVDKSRWQQGNVFSCSVMHEALHNHYTQKSLSLSPG
light: DIQMTQSPSSVSASVGDRVTITCRASQGISSWLAWYQQKPGKAPKLLIYAASSLQSGVPSRFSGSGSGTDFTLTISSLQPEDFATYYCQQGVSFPRTFGGGTKVEIKRTVAAPSVFIFPPSDEQLKSGTASVVCLLNNFYPREAKVQWKVDNALQSGNSQESVTEQDSKDSTYSLSSTLTLSKADYEKHKVYACEVTHQGLSSPVTKSFNRGEC
notes: also called EGFR-TriNKET-3
Broadly, the Kd is the concentration at which binding is half-saturated. A word on the EC50: it is the concentration needed to bring the measured effect to its halfway point. With B1, the dissociation constant (Kd) in the experiment with cynomolgus monkey CD16a is 80.9 nM. For the same molecule, in experiment [1], the “EC50 of growth inhibition at 72 hours (IncuCyte), human primary keratinocytes, against cetuximab” value amounted to 60 fold; the “EC50 of inhibition of EGF-induced EGFR phosphorylation (AlphaLISA), human primary keratinocytes” value was 5.3 nM; the “EC50 of tumor cell growth inhibition over 72 hours (IncuCyte), NCI-H292-NucLight Green or FaDu cells” value fell in the range of 1.7 to 3.9 nM. In the experiment with human NKG2D on cells, the “EC50, IFNγ release from NK cells (AlphaLISA) in the presence of HT29 cells” value came out at 1.6 nM and the “EC50, IFNγ release from NK cells (AlphaLISA) in the presence of NCI-H1975 cells” value is 0.88 nM. Moreover, in experiment [2], a half-maximal effect (EC50) was put at 4.6 nM and the “Max FOB” value was 730 fold over background. Further, in experiment [3], the concentration giving a half-maximal response (EC50) is 2.3 nM and the “Max FOB” value was determined as 170 fold over background.

For the origin of these results see US20230250176A1 (DRAGONFLY THERAPEUTICS, published 2023).
